Laboratory results published in patent US20240309087A1 (SHANGHAI JUNSHI BIOSCIENCES, published 2024).

T1: human CD112R on CHO-CD112R cells (human, UniProt Q6DKI7 41-326)
T1 construct: whole, on cells; also called hCD112R; PVRIG
T1 sequence (looked up): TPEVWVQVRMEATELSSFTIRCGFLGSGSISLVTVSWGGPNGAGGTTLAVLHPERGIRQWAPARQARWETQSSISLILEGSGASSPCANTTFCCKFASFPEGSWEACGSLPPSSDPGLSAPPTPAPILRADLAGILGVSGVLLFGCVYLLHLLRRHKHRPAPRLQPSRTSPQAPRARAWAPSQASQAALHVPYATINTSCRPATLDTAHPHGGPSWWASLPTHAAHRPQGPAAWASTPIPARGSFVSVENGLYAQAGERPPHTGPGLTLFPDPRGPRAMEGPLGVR

T2: human CD112R on Jurkat CD112R effector cells (human, UniProt Q6DKI7 1-326)
T2 sequence (looked up): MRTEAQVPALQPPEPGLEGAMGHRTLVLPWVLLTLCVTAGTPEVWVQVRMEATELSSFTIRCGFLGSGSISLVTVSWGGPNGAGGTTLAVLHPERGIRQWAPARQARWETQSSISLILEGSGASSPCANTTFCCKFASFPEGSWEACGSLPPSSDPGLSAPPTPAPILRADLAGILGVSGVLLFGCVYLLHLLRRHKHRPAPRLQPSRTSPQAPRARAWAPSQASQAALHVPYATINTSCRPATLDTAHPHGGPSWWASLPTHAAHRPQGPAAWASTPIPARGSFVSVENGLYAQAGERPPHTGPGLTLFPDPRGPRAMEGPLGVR

T3: hCD112R mFC recombinant protein (human; murine, UniProt Q6DKI7 41-160)
T3 construct: range 41-160; expressed in 293E cells; also called hCD112R ECD mFC; hCD112R-ECD-mFC; not shown: murine IgG2a Fc domain (MX2-mFc vector)
T3 sequence (looked up): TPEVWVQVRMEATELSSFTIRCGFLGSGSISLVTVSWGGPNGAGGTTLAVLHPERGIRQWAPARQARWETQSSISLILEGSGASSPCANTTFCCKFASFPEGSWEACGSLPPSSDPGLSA

T4: recombinant cynomolgus monkey CD112R antigen (cynomolgus monkey, UniProt A0A2K5WVV8 1-322)
T4 construct: bought
T4 sequence: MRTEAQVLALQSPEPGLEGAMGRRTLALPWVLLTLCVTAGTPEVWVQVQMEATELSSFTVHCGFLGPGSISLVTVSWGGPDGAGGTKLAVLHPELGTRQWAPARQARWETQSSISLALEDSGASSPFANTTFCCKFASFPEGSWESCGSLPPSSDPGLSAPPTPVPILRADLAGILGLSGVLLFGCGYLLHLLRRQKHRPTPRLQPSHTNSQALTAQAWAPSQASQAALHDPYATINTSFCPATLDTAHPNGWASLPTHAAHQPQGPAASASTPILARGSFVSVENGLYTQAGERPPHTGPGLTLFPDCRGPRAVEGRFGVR

B1: Chi-62 (antibody, V domains shown)
VH: DVKLVESGGGLVKLGGSLKLSCAASGFTFSSYHMSWVRQTPEKRLELVAAISRDGDSTYYPDTVKGRFTISRDDAENTLYLQMSSLKSEDTALYYCSRHEDYFGFAMDSWGQGTSVTVSS
VL: SIVMTQTPKFLLVSAGDRVTITCKASQSVSNDVAWYQQKPGQSPKLLMYYVSNRFTGVPDRFTGSGYGTDFTFTINTVQAEDLAVYFCQQAYRSPWTFGGGTKLEIK
notes: chimeric
B2: Chi-53 (antibody, V domains shown)
VH: DVKLVESGGGLVKLGGSLKLSCAASGFTFSSYHMSWIRQTPEKRLELVAAINSNGINTYYLDTVKGRFTISRDNAKNTLYLQMSSLKSEDTALYYCARHEDYYGFAMDYWGQGTSVTVSS
VL: SIVMTQTPKFLLVSAGDRVTITCKASQSVSNDVAWYQEKPGQSPKLLMYYVSHRFTGVPDRFTGSGYGTDFTFTINTVQAEDLAVYFCHQAYRSPWTFGGGTKLEIK
notes: chimeric
B3: Chi-69 (antibody, V domains shown)
VH: DVQLVESGGGLVKLGGSLKLSCVASGFTFSSYHMSWIRQTPEKRLELVAAINSNDINTYYLDTVKGRFTISRDIAKNTLHLQMSSLKSEDTALYYCARHEDYYGFAMDYWGQGTSVTVSS
VL: SIVMTQTPKFLLVSAGDRVTITCKASQSVSNDVAWYQEKPGQSPKLLMYYVSHRFTGVPDRFTGSGYGTDFTFTINTVQAEDLAVYFCHQAYRSPWTFGGGTKLEIK
notes: chimeric
B4: Chi-70 (antibody, V domains shown)
VH: DVQLVESGGGLVKLGGSLKLSCVASGFTFSSYHMSWIRQTPEKRLELVAAINSNDINTYYLDTVKGRFTISRDIAKNTLHLQMSSLKSEDTALYYCARHEDYYGFAMDYWGQGTSVTVSS
VL: SIVMTQTPKFLLVSAGDRVTITCKASQSVSNDVAWYQQKPGQSPKLLMYYVSNRFTGVPDRFTGSGYGTDFTFTINTVQAEDLAVYFCQQAYRSPWTFGGGTKLEIK
notes: chimeric
B5: Chi-71 (antibody, V domains shown)
VH: DVQLVESGGGLVKLGGSLKLSCVASGFTFSSYHMSWIRQTPEKRLELVAAINSNDINTYYLDTVKGRFTISRDIAKNTLHLQMSSLKSEDTALYYCARHEDYYGFAMDYWGQGTSVTVSS
VL: SIVMTQTPKFLLVSAGDRVTITCKASQSVTNDVAWYQQKPGQSPKLLMYYVSNHYTGVPDRFIGSGYGTDFTFTISTVQAEDLAVYFCQQAYRSPWTFGGGTKLEIK
notes: chimeric
B6: Chi-55 (antibody, V domains shown)
VH: DVKLVESGGGLVKLGGSLKLSCAASGFTFSSYHMSWIRQTPEKRLELVAAINSNGINTYYLDTVKGRFTISRDNAKNTLYLQMSSLKSEDTALYYCARHEDYYGFAMDYWGQGTSVTVSS
VL: SIVMTQTPKFLLVSAGDRVTITCKASQSVTNDVAWYQQKPGQSPKLLMYYVSNHYTGVPDRFIGSGYGTDFTFTISTVQAEDLAVYFCQQAYRSPWTFGGGTKLEIK
notes: chimeric

Tests used:
[1] = biological target: T1, human CD112R on CHO-CD112R cells; assay: FACS on CHO-CD112R cells
Protocol: (§1) CHO-CD112R cells (constructed in-house by Junshi, the amino acid sequence of CD112R in the construction of stable cell lines overexpressing CD112R comprises amino acids at positions Met1-Arg326 under NCBI accession No. Q6DKI7) overexpressing human CD112R were incubated with each of the chimeric anti-CD112R antibodies at different concentrations (initial concentration: 50 μg/mL, 5-fold dilution, 12 concentration gradients in total) at 4° C. for 30 min, and then washed and incubated with a fluorescence-labeled secondary antibody at 4° C. for 30 min in the dark. Finally, the cells were collected by using a flow cytometer (BD Canto II), and the fluorescent antibodies bound to the cell surface were detected. Raw data were analyzed by using FlowJo to obtain MFI values, the antibody dose-dependent binding curves were fitted by using GraphPad (FIG. 3, a and b) and EC₅₀ was calculated (Table 3). The positive control and the negative control were Ref (anti-CD112R antibody, University of Colorado, obtained by expression and purification according to the sequences in US20170240613) and anti-KLH hu-IgG4 antibody, respectively.

[2] = biological target: T2, human CD112R on Jurkat CD112R effector …; assay: cell-based or functional assay
[3] = biological target: T3, hCD112R mFC recombinant protein; assay: FACS blocking: hCD112R mFc (5 µg/mL) binding to human CD112 on CHO CD112 cells, MFI-APC; unit from the axis (µg/mL), Table 8 says ng/ml
Protocol: (§2) Cells CHO CD112 overexpressing human CD112 were co-incubated with a hCD112R mFc protein solution (5 μg/mL) prepared in a staining buffer (PBS+1% FBS), and the chimeric anti-CD112R antibodies or the control antibodies at different concentrations (initial concentration: 100 μg/mL, 3-fold dilution, 10 concentration gradients) at 4° C. for 30 min. Unbound antibodies were then washed with a staining buffer and the cells were incubated with 1% (v/v) goat anti-mouse IgG Fc fluorescent secondary antibodies (Jackson ImmunoResearch) prepared in a staining buffer at 4° C. for 30 min in the dark. Finally, the cells were collected by using a flow cytometer (BD Canto II), and the fluorescent antibodies bound to the cell surface were detected. Raw data were analyzed by using FlowJo to obtain MFI values, and a four-parameter curve fitting was performed by using GraphPad Prism software to obtain IC₅₀ values. The positive control and the negative control were Ref (anti-CD112R antibody, University of Colorado, obtained by expression and purification according to the sequences in US20170240613) and the anti-KLH hu-IgG4 antibody, respectively.

[4] = biological target: T3, hCD112R mFC recombinant protein; assay: FACS competition, hCD112R mFc on CHO CD112 cells; ratio Ref/antibody
Protocol: as §2

[5] = biological target: T4, recombinant cynomolgus monkey CD112R …; assay: ELISA, coated cynomolgus monkey CD112R; EC50 Ref/EC50 antibody
Protocol: (§3) A plate was coated with a recombinant cynomolgus monkey CD112R antigen (Acrobiosystems, Cat No. PVG-C5259) at a fixed concentration, and the chimeric anti-CD112R antibodies diluted in a gradient (initial concentration: 1 μg/mL, 2.5-fold gradient dilution, 12 concentration gradients in total) were added to bind to the antigen. Horseradish peroxidase (HRP)-conjugated mouse anti-human IgG4 Fc (Southern Biotech, 9200-05) was subjected to a 5000-fold dilution and used as a detection antibody for detection. The color development was performed with 0.1 mg/mL TMB, and finally stopped with 2 M hydrochloric acid. The plate was read at 420 nm/620 nm. EC₅₀ was obtained by fitting with a four-parameter logistic regression (4PL) model.

[6] = biological target: T3, hCD112R mFC recombinant protein; assay: FACS competition, hCD112R mFc on CHO CD112 cells
Protocol: as §2
As shown in FIG. 5 (a and b) and Table 8, the following 13 chimeric antibodies were all capable of effectively blocking the binding of the CD112R protein to CHO-CD112 cells.

[7] = biological target: T4, recombinant cynomolgus monkey CD112R …; assay: ELISA, coated cynomolgus monkey CD112R
Protocol: as §3

[8] = biological target: T1, human CD112R on CHO-CD112R cells; assay: FACS on CHO-CD112R cells; EC50 Ref/EC50 antibody
Protocol: as §1

| Binder | EC50 [1] | EC50, CD112R/CD112 reporter [2] | Relative activity (%), EC50 Ref/EC50 antibody [2] | IC50 [3] | Relative activity (%) [4] | Relative activity (%) [5] | IC50 [6] | EC50 [7] | Relative activity (%) [8] |
| --- | --- | --- | --- | --- | --- | --- | --- | --- | --- |
| B1 | 0.214 µg/mL | 0.0129 µg/mL | 2350% | 0.964 µg/mL | 110% | 113% | 0.964 µg/mL | 0.00371 µg/mL | 2000% |
| B2 | 0.627 µg/mL | 0.0129 µg/mL | 2430% | 0.979 µg/mL | 108% | 106% | 0.979 µg/mL | 0.0033 µg/mL | 268% |
| B3 | 0.262 µg/mL | 0.0187 µg/mL | 1390% | 0.959 µg/mL | 110% | 88.4% | 0.959 µg/mL | 0.00474 µg/mL | 1630% |
| B4 | 0.26 µg/mL | 0.0139 µg/mL | 1870% | 0.708 µg/mL | 150% | 109% | 0.708 µg/mL | 0.00383 µg/mL | 1640% |
| B5 | 0.205 µg/mL | 0.0194 µg/mL | 1470% | 0.733 µg/mL | 144% | 94.8% | 0.733 µg/mL | 0.00442 µg/mL | 2090% |
| B6 | 0.14 µg/mL | 0.0131 µg/mL | 2310% | 1.02 µg/mL | 104% | 100% | 1.02 µg/mL | 0.00419 µg/mL | 3050% |
